Experimental data published in patent US20240279310A1 (ALPINE IMMUNE SCIENCES, published 2024).
Where two headings read alike, the source gives them in different places.

T1: recombinant human APRIL (Tonbo Biosciences) (human, UniProt O75888 105-250, limits assumed)
T1 sequence (looked up): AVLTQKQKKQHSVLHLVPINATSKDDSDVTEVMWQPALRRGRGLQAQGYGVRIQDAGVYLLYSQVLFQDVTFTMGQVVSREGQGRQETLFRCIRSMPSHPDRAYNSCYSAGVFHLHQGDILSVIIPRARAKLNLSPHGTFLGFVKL

T2: recombinant mouse APRIL (ProSci Incorporated) (mouse, UniProt Q9D777 96-241, limits assumed)
T2 sequence (looked up): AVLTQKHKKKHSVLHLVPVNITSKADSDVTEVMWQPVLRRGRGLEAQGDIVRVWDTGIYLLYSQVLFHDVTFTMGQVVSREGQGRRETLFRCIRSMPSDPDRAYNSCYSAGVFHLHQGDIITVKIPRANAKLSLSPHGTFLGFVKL

T3: rat APRIL (rat, UniProt A0A8J8XC20 96-241)
T3 sequence: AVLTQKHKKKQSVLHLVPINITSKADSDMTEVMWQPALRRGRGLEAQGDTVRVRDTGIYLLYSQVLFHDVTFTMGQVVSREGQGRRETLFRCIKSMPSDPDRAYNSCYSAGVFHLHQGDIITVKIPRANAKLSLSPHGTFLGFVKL

B1: 26 TACI CRD2-Fc (TACI vTD SEQ ID NO:26, K77E/F78Y/Y102D; Fc fusion SEQ ID NO: 167) (Fc fusion)
chain: SLSCRKEQGEYYDHLLRDCISCASICGQHPKQCADFCENKLRSGSGGGGSEPKSSDKTHTCPPCPAPEAEGAPSVFLFPPKPKDTLMISRTPEVTCVVVDVSHEDPEVKFNWYVDGVEVHNAKTKPREEQYNSTYRVVSVLTVLHQDWLNGKEYKCKVSNKALPAPIEKTISKAKGQPREPQVYTLPPSRDELTKNQVSLTCLVKGFYPSDIAVEWESNGQPENNYKTTPPVLDSDGSFFLYSKLTVDKSRWQQGNVFSCSVMHEALHNHYTQKSLSLSPG
B2: 13 TACI CRD2-Fc, WT TACI (68-110)-Fc (TACI 68-110, SEQ ID NO: 13, TACI-Fc SEQ ID NO: 171) (Fc fusion)
chain: SLSCRKEQGKFYDHLLRDCISCASICGQHPKQCAYFCENKLRSGSGGGGSEPKSSDKTHTCPPCPAPEAEGAPSVFLFPPKPKDTLMISRTPEVTCVVVDVSHEDPEVKFNWYVDGVEVHNAKTKPREEQYNSTYRVVSVLTVLHQDWLNGKEYKCKVSNKALPAPIEKTISKAKGQPREPQVYTLPPSRDELTKNQVSLTCLVKGFYPSDIAVEWESNGQPENNYKTTPPVLDSDGSFFLYSKLTVDKSRWQQGNVFSCSVMHEALHNHYTQKSLSLSPG
B3: 7 TACI CRD1/CRD2-Fc (Fc fusion)
TACI vTD-linker-Fc chain: VAMRSCPEEQYWDPLLGTCMSCKTICNHQSQRTCAAFCRSLSCRKEQGKFYDHLLRDCISCASICGQHPKQCDYFCENKLRSGSGGGGSEPKSSDKTHTCPPCPAPEAEGAPSVFLFPPKPKDTLMISRTPEVTCVVVDVSHEDPEVKFNWYVDGVEVHNAKTKPREEQYNSTYRVVSVLTVLHQDWLNGKEYKCKVSNKALPAPIEKTISKAKGQPREPQVYTLPPSRDELTKNQVSLTCLVKGFYPSDIAVEWESNGQPENNYKTTPPVLDSDGSFFLYSKLTVDKSRWQQGNVFSCSVMHEALHNHYTQKSLSLSPG

Tests used:
Assay in all cases: cell-based or functional assay
[1] = biological target: T4, recombinant human BAFF (BioLegend) (human, UniProt Q9Y275 134-285)
[2] = biological target: T1, recombinant human APRIL (Tonbo …)
[3] = biological target: T4, recombinant human BAFF (BioLegend); remark: listed apart in the source
[4] = biological target: T1, recombinant human APRIL (Tonbo …); remark: listed apart in the source
[5] = biological target: T4, recombinant human BAFF (BioLegend); remark: listed apart in the source
[6] = biological target: T1, recombinant human APRIL (Tonbo …); remark: listed apart in the source
[7] = biological target: T4, recombinant human BAFF (BioLegend); remark: listed apart in the source
[8] = biological target: T1, recombinant human APRIL (Tonbo …); remark: listed apart in the source
[9] = biological target: T4, recombinant human BAFF (BioLegend); remark: listed apart in the source
[10] = biological target: T4, recombinant human BAFF (BioLegend); remark: listed apart in the source
[11] = biological target: T1, recombinant human APRIL (Tonbo …); remark: listed apart in the source
[12] = biological target: T5, recombinant mouse BAFF (R & D Systems) (mouse, UniProt Q9WU72 127-309)
T5 sequence (Q9WU72 127-309 limits assumed): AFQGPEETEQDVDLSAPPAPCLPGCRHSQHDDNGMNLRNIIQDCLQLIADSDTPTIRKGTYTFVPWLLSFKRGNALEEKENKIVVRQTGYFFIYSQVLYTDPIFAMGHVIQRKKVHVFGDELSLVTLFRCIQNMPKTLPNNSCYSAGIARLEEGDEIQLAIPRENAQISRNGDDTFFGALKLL

[13] = biological target: T5, recombinant mouse BAFF (R & D Systems); remark: listed apart in the source
[14] = biological target: T4, recombinant human BAFF (BioLegend); remark: listed apart in the source
[15] = biological target: T2, recombinant mouse APRIL (ProSci …)
[16] = biological target: T1, recombinant human APRIL (Tonbo …); remark: listed apart in the source
cynomolgus monkey BAFF = cynomolgus monkey BAFF (cynomolgus monkey, UniProt A0A2K5V2X4 134-285)
rat BAFF = rat BAFF (rat)
rat APRIL = biological target: T3, rat APRIL
cynomolgus monkey APRIL = cynomolgus monkey APRIL (cynomolgus monkey)
[17] = biological target: T4, recombinant human BAFF (BioLegend); remark: listed apart in the source
[18] = biological target: T2, recombinant mouse APRIL (ProSci …); remark: listed apart in the source
[19] = biological target: T1, recombinant human APRIL (Tonbo …); remark: listed apart in the source

| Binder | IC50 (nM) BAFF [3] [nM] | IC50 BAFF (Δ TACI 30-110-Fc) [3] [ratio] | IC50 (nM) APRIL [4] [nM] | IC50 APRIL (Δ TACI 30-110-Fc) [4] [ratio] | IC50 (read off the curve) [5] [nM] | BAFF IC50 (pM) [7] [pM] | BAFF IC50 (Δ WT) [7] [ratio] | APRIL IC50 (pM) [8] [pM] | APRIL IC50 (Δ WT) [8] [ratio] | IC50 (read off the curve) [12] [nM] | IC50 (read off the curve) [17] [nM] | also measured |
| --- | --- | --- | --- | --- | --- | --- | --- | --- | --- | --- | --- | --- |
| B1 | 1220 | 0.21 | 179 | 0.05 | ~2 | 1550 | 0.84 | 9210 | 0.75 | ~1 | – | IC50 (nM) BAFF [1]: 1270 nM; IC50 BAFF (Δ TACI 30-110) [1]: 0.28 ratio; IC50 (nM) APRIL [2]: 214 nM; IC50 APRIL (Δ TACI 30-110) [2]: 0.05 ratio; IC50 (read off the curve) [6]: ~0.6 nM; IC50 value [9]: 0.078 µg/mL; IC50 (pM) BAFF [10]: 1340 pM; IC50 (pM) APRIL [11]: 1760 pM; BAFF IC50 (nM), signal inhibition in Jurkat/NF-κB/TACI cells [13]: 15.2 nM; BAFF IC50 (nM), signal inhibition in Jurkat/NF-κB/TACI cells [14]: 2.8 nM; APRIL IC50 (nM), signal inhibition in Jurkat/NF-κB/TACI cells [15]: 24.5 nM; APRIL IC50 (nM), signal inhibition in Jurkat/NF-κB/TACI cells [16]: 3.4 nM; BAFF IC50 (nM), signal inhibition in Jurkat/NF-κB/TACI cells (cynomolgus monkey BAFF): 1.9 nM; BAFF IC50 (nM), signal inhibition in Jurkat/NF-κB/TACI cells (rat BAFF): 3.8 nM; APRIL IC50 (nM), signal inhibition in Jurkat/NF-κB/TACI cells (rat APRIL): 22.7 nM; APRIL IC50 (nM), signal inhibition in Jurkat/NF-κB/TACI cells (cynomolgus monkey APRIL): 3.3 nM |
| B2 | 1330 | 0.23 | 369 | 0.1 | ~3 | 1850 | 1 | 12300 | 1 | ~5 | ~2 | IC50 (read off the curve) [18]: ~0.7 nM |
| B3 | – | – | – | – | – | – | – | – | – | – | ~2 | IC50 (read off the curve) [19]: ~3 nM |
